Data published in patent US20250090676A1 (SUTRO BIOPHARMA, published 2025).

How the values were obtained:
[1] = biological target: T1, cynomolgus monkey folate receptor alpha (cynomolgus monkey, UniProt P15328 25-234 (human entry)); assay: FACS, CHO-cFOLR1 cells
T1 construct: Expressed on the surface of stably transfected CHO cells; also called cyno FolR1; CHO-cyno FolR1

[2] = biological target: T2, human folate receptor alpha (hFOLR1) (human, UniProt P15328 25-234); assay: FACS, CHO-hFOLR1 cells;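 note: flow cytometry of serially diluted antibodies binding CHO cells stably expressing the receptor, 60 min on ice, mixed with dye-tagged parental CHO as background control, one-site specific fit with Hill slope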
T2 construct: endogenous on FOLR1-positive KB and Igrov1 cells (cell killing); also called human FolR1; FolRα
T2 sequence (P15328 25-234 limits assumed): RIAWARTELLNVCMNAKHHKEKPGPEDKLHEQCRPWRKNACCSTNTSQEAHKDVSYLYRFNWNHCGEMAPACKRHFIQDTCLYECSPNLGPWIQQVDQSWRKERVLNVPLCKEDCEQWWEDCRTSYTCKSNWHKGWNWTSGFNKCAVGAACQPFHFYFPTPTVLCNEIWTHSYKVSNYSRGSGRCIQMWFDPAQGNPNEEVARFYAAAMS

[3] = biological target: T3, murine folate receptor alpha (mouse, UniProt P35846 25-232); assay: FACS, CHO-mFOLR1 cells;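 note: flow cytometry binding of serially diluted test antibodies to transfected CHO cells on ice, mean fluorescence intensity, parental CHO cells give background, Kd from one-site specific binding fit with Hill slope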
T3 construct: Expressed on the surface of stably transfected CHO cells; also called mouse FolR1; CHO-mouse FolR1
T3 sequence (P35846 25-232 limits assumed): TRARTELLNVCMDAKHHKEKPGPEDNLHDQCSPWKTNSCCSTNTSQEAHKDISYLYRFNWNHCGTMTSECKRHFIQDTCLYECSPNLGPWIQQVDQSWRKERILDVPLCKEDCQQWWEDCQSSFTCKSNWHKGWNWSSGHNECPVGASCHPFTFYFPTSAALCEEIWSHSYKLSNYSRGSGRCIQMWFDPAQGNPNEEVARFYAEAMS

[4] = biological target: T2, human folate receptor alpha (hFOLR1); assay: cell-based or functional assay

T1 sequence (P15328 other isoform, or with tags, fused parts or gaps limits assumed): as the sequence (P15328 25-234 limits assumed) above, with I2T, W4R, R37K, Q117R, A146P, H171Y counted along it

Binder | Bmax (MFI) [1] [MFI] | Kd [1] [nM] | Bmax (MFI) [2] [MFI] | Kd [2] [nM] | Bmax (MFI) [3] [MFI] | Kd [3] [nM] | Igrov, 2° Antibody Cell Killing, Nb-SC239: EC50 [4] [nM] | Igrov, 2° Antibody Cell Killing, Nb-SC239: Span [4] [%] | KB, 2° Antibody Cell Killing, Nb-239: EC50 [4] [nM] | KB, 2° Antibody Cell Killing, Nb-239: Span [4] [%]
SRP1848-F10 (antibody, V domains shown, HC variant paired with trastuzumab LC, cell-free expressed, HIS- and FLAG-tagged; also called Antibody 45) VH: EVQLVESGGGLVQPGGSLRLSCAASGFNISNNSIHWVRQAPGKGLEWVGSIFPNDGYTDYADSVKGRFTISADTSKNTAYLQMNSLRAEDTAVYYCARGSWFWRSGYGYYLDYWGQGTLVTVSS VL: not shown | 20700 | 0.4 | 25600 | 0.36 | 1740 | 6.9 | 0.009 | 68 | 0.038 | 94
SRP1848-H01 (antibody, V domains shown, HC variant paired with trastuzumab LC, cell-free expressed, HIS- and FLAG-tagged; also called Antibody 55) VH: EVQLVESGGGLVQPGGSLRLSCAASGFNIRTQSIHWVRQAPGKGLEWIGDIFPIDGITDYADSVKGRFTISADTSKNTAYLQMNSLRAEDTAVYYCARGSWSWPSGMDYYLDYWGQGTLVTVSS VL: not shown | 17200 | 0.28 | 27000 | 0.59 | 3950 | 33.8 | 0.016 | 67 | 0.049 | 96
SRP1848-G03 (antibody, V domains shown, HC variant paired with trastuzumab LC, cell-free expressed, HIS- and FLAG-tagged; also called Antibody 48) VH: EVQLVESGGGLVQPGGSLRLSCAASGFNISTYYIHWVRQAPGKGLEWVGGITPSDGFTDYADSVKGRSTISADTSKNTAYLQMNSLRAEDTAVYYCARGSWSWPSGHGYFLDYWGQGTLVTVSS VL: not shown | 19200 | 0.44 | 26400 | 0.82 | 2220 | 2.4 | 0.021 | 76 | 0.064 | 91
SRP1848-G01 (antibody, V domains shown, HC variant paired with trastuzumab LC, cell-free expressed, HIS- and FLAG-tagged; also called Antibody 47) VH: EVQLVESGGGLVQPGGSLRLSCAASGFNISRHSIHWVRQAPGKGLEWVGWIAPNDGSTDYADSVKGRFTISADTSKNTAYLQMNSLRAEDTAVYYCARGSWAWRSGYSYFLDYWGQGTLVTVSS VL: not shown | 20900 | 0.56 | 27400 | 0.98 | 1990 | 4.6 | 0.022 | 66 | 0.07 | 91
SRP1848-F11 (antibody, V domains shown, HC variant paired with trastuzumab LC, cell-free expressed, HIS- and FLAG-tagged; also called Antibody 46) VH: EVQLVESGGGLVQPGGSLRLSCAASGFNISNNYIHWVRQAPGKGLEWVGGITPIDGNTDYADSVKGRFTISADTSMNTAYLQMNSLRAEDTAVYYCARGSWYWRAGYGYYLDYWGQGALVTVSS VL: not shown | 21800 | 0.47 | 26800 | 0.75 | 1760 | 4.6 | 0.017 | 70 | 0.054 | 91
SRP1848-A02 (antibody, V domains shown, HC variant paired with trastuzumab LC, cell-free expressed, HIS- and FLAG-tagged; also called Antibody 2) VH: EVQLVESGGGLVQPGGSLRLSCAASGFNISGFRIHWVRQAPGKGLEWVAGIYPESGATYYADSVKGRFTISADTSKNTAYLQMNSLRAEDTAVYYCARHLYVWDWVLDHVLDYWGQGTLVTVSS VL: not shown | 18500 | 0.5 | 24700 | 0.64 | 18600 | 2.4 | 0.039 | 71 | 0.028 | 94
SRP1848-D03 (antibody, V domains shown, HC variant paired with trastuzumab LC, cell-free expressed, HIS- and FLAG-tagged; also called Antibody 25) VH: EVQLVESGGGVVQPGGSLRLSCAASGFNIRYFSIHWVRQAPGKGLEWVGDIFPNDGSTDYADSVKGRFTISADTSKNTAYLQMNSLRAEETAVYYCARGHWSWPSGYWYYLDYWGQGTLVTVSS VL: not shown | 14100 | 0.58 | 26000 | 1.9 | 3170 | 9.5 | 0.038 | 76 |  | 98
SRP1848-G04 (antibody, V domains shown, HC variant paired with trastuzumab LC, cell-free expressed, HIS- and FLAG-tagged; also called Antibody 49) VH: EVQLVESGGGLVQPGGSLRLSCAASGFNIHSTDIHWVRQAPGKGLEWVAYITPAGGATFYADSVKGRFTISADTSKNTAYLQMNSLRAEDTAVYYCARYPYWFAGYMDYWGQGTLVTVSS VL: not shown | 12500 | 0.25 | 25200 | 0.76 | 2000 | 2.5 | 0.016 | 75 | 0.051 | 92
SRP1848-G11 (antibody, V domains shown, HC variant paired with trastuzumab LC, cell-free expressed, HIS- and FLAG-tagged; also called Antibody 54) VH: EVQLVESGGGLVQPGGSLRLSCAASGFNISSTDIHWVRQAPGKGLEWVAYITPAGGATWYADSVKGRFTISADTSKNTAYLQMNSLRAEDTAVYYCARYPYWFSGYMDYWGQGTLVTVSS VL: not shown | 11800 | 0.26 | 27200 | 0.68 | 2740 | 7.6 | 0.023 | 84 | 0.04 | 97
SRP1848-G07 (antibody, V domains shown, HC variant paired with trastuzumab LC, cell-free expressed, HIS- and FLAG-tagged; also called Antibody 51) VH: EVQLVESGGGLVQPGGSLRLSCAASGFNIHSTDIHWVRQAPGKGLEWVAYITPAGGATWYADSVKGRFTISADTSKNTAYLQMNSLRAEDTAVYYCARYPFWFAGYMDYWGQGTLVTVSS VL: not shown | 13700 | 0.35 | 24900 | 0.78 | 1980 | 2.9 | 0.038 | 78 | 0.058 | 94
SRP1848-G10 (antibody, V domains shown, HC variant paired with trastuzumab LC, cell-free expressed, HIS- and FLAG-tagged; also called Antibody 53) VH: EVQLVESGGGLVQPGSSLRLSCAASGFNIRSTDIHWVRQAPGKGLEWVAYITPAGGATYYADSVKGRFTISADTSKNTAYLQMNSLRAEDTAVYYCARYPYWFAGYIDYWGQGTLVTVSS VL: not shown | 14200 | 0.24 | 25300 | 0.49 | 2890 | 4.3 | 0.019 | 79 | 0.046 | 97
SRP1848-G09 (antibody, V domains shown, HC variant paired with trastuzumab LC, cell-free expressed, HIS- and FLAG-tagged; also called Antibody 52) VH: EVQLVESGGGLVQPGGSLRLSCAASGFNIRGTDIHWVRQAPGKGLEWVAYITPAGGATFYADSVKGRFTISADTSKNTAYLQMNSLRAEDTAVYYCARHEYWFSGYMDYWGQGTLVTVSS VL: not shown | 17700 | 0.35 | 25100 | 0.59 | 2180 | 6.4 | 0.036 | 83 | 0.073 | 97
SRP1848-G06 (antibody, V domains shown, HC variant paired with trastuzumab LC, cell-free expressed, HIS- and FLAG-tagged; also called Antibody 50) VH: EVQLVESGGGLVQPGGSLRLSCAASGFNIRSTDIHWVRQAPGKGLEWVAYITPAGGATYYADNVKGRFTISADTSKNTAYLQMNSLRAEDTAVYYCARQPYWFAGYMDYWGQGTLVTVSS VL: not shown | 12800 | 0.31 | 25800 | 0.63 | 1860 | 11.1 | 0.026 | 81 | 0.057 | 96
